Laboratory results as given in the supplement of paper PMC10567573.

B1: CD207 (parent)
chain: MTVEKEAPDAHFTVDKQNISLWPR

Variants of: B1
Test: protein stability index of a GFP-peptide fusion (GPS, HEK-293T) (PSI 1-6); higher = more stable
Conditions: c terminus: a fixed tail appended
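Note: lentivirally expressed fusions sorted by FACS into six bins by GFP to DsRed ratio, PSI derived from sequencing read proportions per bin multiplied by bin number.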

Protein stability index: each site, then its substitutions
D15: H 2.48, N 2.54, K 2.81, I 2.31, E 3.51, T 2.74, Q 3.17, M 2.67, Y 1.98, F 2.06, R 3.06, S 3.61, G 2.92, A 3.35, P 2.74, C 3.35
V14: H 3.13, S 3.81, A 3.45, Q 3.85, F 2.42, L 2.93, W 2.65, G 2.35, T 3.82, E 3.79, K 3.41, I 3.45, R 3.05, N 3.36, M 3.18, D 4.11, P 3.79, Y 2.48, C 3.27
F12: V 3.74, Y 3.16, L 3.72, S 4.1, C 3.72, M 4.14, N 3.13, R 4.04, K 4.05, I 3.96, P 4.66, T 4.09, H 4.02, A 3.78, E 4.38, W 3.35, D 4.92, G 4.03, Q 4.5
H11: G 3.06, N 3.68, W 1.97, R 2.79, C 3.01, Y 2.28, D 3.58, Q 2.95, L 3, K 3.4, I 2.89, V 3.55, P 3.55, E 4.08, M 2.88, S 3.58, T 3.8, A 3.38
I19: L 3.35, N 4.39, V 3.98, G 3.13, S 3.45, D 4.22, C 3.76, Q 3.84, T 3.79, R 3.99, H 4.29, E 4.47, K 4.35, A 4.25, M 3.67, F 4.08, P 4
K16: L 2.62, H 3.53, F 2.95, Q 3.01, D 3.35, P 3.26, N 3.49, S 3.79, G 3.8, T 3.18, M 2.83, C 3.76, E 4.13, R 3.26, A 3.52, Y 2.83, W 2, I 2.39, V 2.93
T13: H 3.03, F 3.13, R 2.66, Y 3.59, S 3.8, L 4.19, N 3.63, Q 3.43, A 3.53, P 3.19, G 3.04, K 3.61, V 3.42, W 2.54, D 3.96, C 3.2, M 3.12, I 3.49
N18: G 3, W 2.05, R 3.14, K 3.4, D 3.21, E 3.34, P 3.39, M 3.5, H 3.46, I 1.95, S 3.56, V 2.29, Q 2.86, F 3, T 3.62, Y 2.97, L 2.88, C 2.44, A 4.24
A10: Y 3.3, V 2.91, W 2.4
Q17: E 3.26, W 1.56, L 2.64, T 3.14, A 3.66, N 2.97, H 3.05, P 3.21, V 2.39, M 2.15, I 2.48, S 2.31, K 3.36, G 3.38, Y 1.94, D 3.73, C 2.8, R 2.76, F 1.89
